Here are results for 58 variants from the FLAb antibody collection (doi:10.7554/elife.23156).

To fix the notation:
B1: scFv; the commonest letter at each place (parent)
chain 1: EVKLDETGGGLVQPGRPMKLSCVASGFTFSDYWMNWVRQSPEKGLEWVAQIRNKPYNYETYYSDSVKGRFTISRDDSKSSVYLQMNNLRVEDMGIYYCTGSYYGMDYWGQGTSVTVS
chain 2: DVVMTQTPLSLPVSLGDQASISCRSSQSLVHSNGNTYLRWYLQKPGQSPKVLIYKVSNRFSGVPDRFSGSGSGTDFTLKISRVEAEDLGVYFCSQSTHVPWTFGGGTKLEIK

Variants of B1 are the subject of data set [1]. In words: Kd (Tite-Seq). The conditions noted are these: with fluorescein; format: scFv 4-4-20, heavy + light.
Data set [2] covers variants of B1. In words: yeast surface expression (ratio to wild type); higher = more expressed. The conditions noted are these: format: scFv 4-4-20, heavy + light.

For orientation: Kd means the free concentration of one partner at which half of the binding sites on the other are occupied at equilibrium, for simple one-to-one binding. Regarding chain 1 N35Q W36M, in data set [1], the Kd is no less than 10 µM. Further, in data set [2], the yeast surface expression is 0.504.

Take chain 1 S30D D31G W33A: the Kd in data set [1] was no less than 10 µM. Further, the yeast surface expression in data set [2] turned out to be 0.663.

As for chain 1 S30R V37M, the Kd in data set [1] was no more than 0.000316 µM. For the same variant, in data set [2], the yeast surface expression was 1.02.

Turning to chain 1 S30C W33L, the Kd in data set [1] is no less than 10 µM. In addition, in data set [2], the yeast surface expression stood at 0.696.

For the variant chain 1 S30C W33I, in data set [1], the Kd is no less than 10 µM. In addition, the yeast surface expression in data set [2] amounted to 0.877.

Take chain 1 S30C W33Y: the Kd in data set [1] is no less than 10 µM. Further, in data set [2], the yeast surface expression came to 1.04.

As for chain 1 S30A D31A V37C, the Kd in data set [1] was found to be 0.00158 µM. Besides, the yeast surface expression in data set [2] stood at 0.739.

As for chain 1 S30R N35V, the Kd in data set [1] was no less than 10 µM. The yeast surface expression in data set [2] amounted to 0.567.

Regarding chain 1 S30R N35F, in data set [1], the Kd was no less than 10 µM. For the same variant, in data set [2], the yeast surface expression was 0.413.

As to chain 1 S30R N35R, in data set [1], the Kd is no less than 10 µM. In data set [2], the yeast surface expression is 0.535.

On to chain 1 S30M N35V V37A, for which the Kd in data set [1] was no less than 10 µM. Further, in data set [2], the yeast surface expression was determined as 0.167.

On to chain 1 S30A W33N, for which the Kd in data set [1] was no less than 10 µM. Further, the yeast surface expression in data set [2] stood at 0.914.

As to chain 1 S30F M34E, the Kd in data set [1] is no more than 0.000316 µM. Also, the yeast surface expression in data set [2] was 0.0981.

In the case of chain 1 S30F M34Y, in data set [1], the Kd came to 0.00871 µM. In addition, the yeast surface expression in data set [2] stood at 0.762.

Consider chain 1 S30F M34C, for which the Kd in data set [1] is 4.14 µM. For the same variant, the yeast surface expression in data set [2] worked out at 0.514.

Consider chain 1 S30K V37A, for which, in data set [1], the Kd is 0.0272 µM. Besides, the yeast surface expression in data set [2] was 0.745.

Turning to chain 1 S30Q V37E, in data set [1], the Kd was no less than 10 µM. Moreover, in data set [2], the yeast surface expression is 0.892.

Consider chain 1 S30G W36L, for which the dissociation constant (Kd) in data set [1] is no less than 10 µM. Besides, the yeast surface expression in data set [2] came to 0.597.

Regarding chain 1 S30G W36S, in data set [1], the Kd amounted to 1.47 µM. The yeast surface expression in data set [2] worked out at 0.275.

Take chain 1 S30N V37W: the Kd in data set [1] is no less than 10 µM. In addition, in data set [2], the yeast surface expression came out at 0.654.

With chain 1 S30D W36V, the Kd in data set [1] was no less than 10 µM. For the same variant, the yeast surface expression in data set [2] is 0.766.

As to chain 1 S30D W36R, in data set [1], the Kd is no less than 10 µM. Further, in data set [2], the yeast surface expression worked out at 2.14.

For the variant chain 1 S30R M34S, the Kd in data set [1] worked out at 0.11 µM. Further, in data set [2], the yeast surface expression worked out at 0.717.

Take chain 1 S30R M34D: in data set [1], the Kd is no less than 10 µM. Also, the yeast surface expression in data set [2] was 0.775.

Consider chain 1 S30R M34C, for which, in data set [1], the Kd was 0.00444 µM. Also, in data set [2], the yeast surface expression was 0.668.

With chain 1 S30D W36V V37L, the Kd in data set [1] was no less than 10 µM. The yeast surface expression in data set [2] is 0.433.

As for chain 1 N35F W36Q, the Kd in data set [1] was no less than 10 µM. The yeast surface expression in data set [2] stood at 0.38.

Regarding chain 1 S30L W33D, the Kd in data set [1] is no less than 10 µM. Besides, the yeast surface expression in data set [2] amounted to 0.844.

chain 1 S30L W33E: the dissociation constant (Kd) in data set [1] is no less than 10 µM. In addition, the yeast surface expression in data set [2] amounted to 0.645.

With chain 1 S30L W33I, the Kd in data set [1] is no less than 10 µM. Also, the yeast surface expression in data set [2] was 0.639.

In the case of chain 1 S30M Y32R, in data set [1], the Kd came out at 4.84 µM. Also, in data set [2], the yeast surface expression was 0.465.

Take chain 1 S30M Y32H: the Kd in data set [1] is 0.0729 µM. The yeast surface expression in data set [2] turned out to be 0.872.

As to chain 1 S30I N35P, in data set [1], the Kd was no less than 10 µM. The yeast surface expression in data set [2] was determined as 0.35.

On to chain 1 N35H V37Y, for which the Kd in data set [1] was no less than 10 µM. Besides, the yeast surface expression in data set [2] was determined as 0.779.

In the case of chain 1 S30M M34L, the Kd in data set [1] came out at 0.00299 µM. The yeast surface expression in data set [2] is 0.94.

For the variant chain 1 S30M M34P, the Kd in data set [1] was no less than 10 µM. Moreover, the yeast surface expression in data set [2] worked out at 2.67.

Regarding chain 1 S30Q W33N, the Kd in data set [1] was no less than 10 µM. For the same variant, in data set [2], the yeast surface expression was determined as 0.979.

In the case of chain 1 S30Q W33S, in data set [1], the Kd is no less than 10 µM. Further, the yeast surface expression in data set [2] is 0.902.

As for chain 1 S30R D31R, the Kd in data set [1] came out at 0.00827 µM. Further, the yeast surface expression in data set [2] worked out at 0.684.

As for chain 1 S30I Y32T, the Kd in data set [1] is no less than 10 µM. Also, the yeast surface expression in data set [2] was 0.909.

For chain 1 S30C V37D, the Kd in data set [1] stood at 2.01 µM. The yeast surface expression in data set [2] stood at 1.73.

For the variant chain 1 N35H W36L, the Kd in data set [1] is no less than 10 µM. Besides, in data set [2], the yeast surface expression was found to be 0.718.

As for chain 1 N35H W36S, the Kd in data set [1] is no less than 10 µM. Moreover, the yeast surface expression in data set [2] was found to be 0.692.

Consider chain 1 S30C Y32V, for which, in data set [1], the Kd was no less than 10 µM. Besides, the yeast surface expression in data set [2] was determined as 0.7.

As to chain 1 S30H D31H, in data set [1], the Kd turned out to be 0.00175 µM. Further, in data set [2], the yeast surface expression worked out at 0.746.

Turning to chain 1 S30H D31K, the Kd in data set [1] is 0.00468 µM. The yeast surface expression in data set [2] is 0.668.

Take chain 1 S30H D31I: in data set [1], the Kd is no less than 10 µM. In addition, in data set [2], the yeast surface expression turned out to be 0.573.

As to chain 1 S30H D31L, in data set [1], the Kd is no less than 10 µM. In addition, in data set [2], the yeast surface expression came out at 0.608.

As for chain 1 S30A M34C, in data set [1], the dissociation constant (Kd) amounted to 0.00104 µM. Further, the yeast surface expression in data set [2] is 0.868.

On to chain 1 S30A M34Y, for which, in data set [1], the Kd is 0.00361 µM. For the same variant, the yeast surface expression in data set [2] was found to be 0.977.

As for chain 1 S30A M34L, the Kd in data set [1] was 0.00115 µM. Besides, in data set [2], the yeast surface expression was 1.1.

With chain 1 S30L D31L, the Kd in data set [1] is no less than 10 µM. The yeast surface expression in data set [2] stood at 0.0981.

In the case of chain 1 S30D W33N, in data set [1], the Kd was no less than 10 µM. In data set [2], the yeast surface expression was 1.07.

Turning to chain 1 S30K Y32E, in data set [1], the Kd is no less than 10 µM. Moreover, in data set [2], the yeast surface expression turned out to be 0.857.

Turning to chain 1 S30H Y32C, in data set [1], the Kd worked out at 9.5 µM. Further, in data set [2], the yeast surface expression stood at 0.722.

With chain 1 S30H Y32T, the Kd in data set [1] is no less than 10 µM. The yeast surface expression in data set [2] is 0.891.

As to chain 1 S30I V37C, the Kd in data set [1] amounted to 0.00135 µM. Also, the yeast surface expression in data set [2] is 0.464.

Consider chain 1 S30D V37F, for which the Kd in data set [1] turned out to be 4.37 µM. Besides, in data set [2], the yeast surface expression came to 0.942.
